Each block holds one binder with its values, some of them ahead of it.
Columns and labels:
[1] = target: human Cluster of Differentiation 3 protein (CD3) (human, UniProt P07766 23-207; P09693 23-182; P04234 22-171; P20963 22-164)
[2] = target: human Cluster of Differentiation 28 protein (CD28) (human, UniProt P10747 19-220)

Kd [1]: 6.92 nM | Kd [2]: 2.55 nM
B1: MX1243 (antibody)
chain 1: not shown
chain 2: DIQLTQSPSSLSASVGDRVTITCRASQSISYLNWYQQKPGKSPKRWIYDTSKLASGVPSRFSGSGSGTDYTLTISSMQPEDAATYYCQQWSSNPLTFGGGTKVEIKGGGGSGGSGSGGGGSASGSGQVQLVQSGAEVAKPGASVKVSCKASGYTFTRYTMHWVKQAPGQGLEWIGYINPSRGYTNYAQKFQGKATLTTDKSTSTAYMELSSLRSEDTAVYYCARYYDDHYSLDYWGQGTTLTVSSASGGSGDKTHTCPPCPAPEAAGGPSVFLFPPKPKDTLMISRTPEVTCVVVDVSHEDPEVKFNWYVDGVEVHNAKTKPREEQYNSTYRVVSVLTVLHQDWLNGKEYKCKVSNKALAAPIEKTISKAKGQPREPQVCTLPPSRDELTKNQVSLSCAVKGFYPSDIAVEWESNGQPENNYKTTPPVLDSDGSFFLVSKLTVDKSRWQQGNVFSCSVMHEALHNHYTQKSLSLSPG

Kd [1]: 727 nM
B2: MX1507 (antibody)
heavy 1: not shown
heavy 2: QVQLVQSGAEVAKPGASVKVSCKASGYTFTRYTMHWVKQAPGQGLEWIGYINPSRGYTNYAQKFQGKATLTTDKSTSTAYMELSSLRSEDTAVYYCARYYDDHYSLDYWGQGTTLTVSSASTKGPSVFPLAPSSKSTSGGTAALGCLVKDYFPEPVTVSWNSGALTSGVHTFPAVLQSSGLYSLSSVVTVPSSSLGTQTYICNVNHKPSNTKVDKKVEPKSCDKTHTCPPCPAPEAAGGPSVFLFPPKPKDTLMISRTPEVTCVVVDVSHEDPEVKFNWYVDGVEVHNAKTKPREEQYNSTYRVVSVLTVLHQDWLNGKEYKCKVSNKALAAPIEKTISKAKGQPREPQVCTLPPSRDELTKNQVSLSCAVKGFYPSDIAVEWESNGQPENNYKTTPPVLDSDGSFFLVSKLTVDKSRWQQGNVFSCSVMHEALHNHYTQKSLSLSPG
light: DIQLTQSPSSLSASVGDRVTITCRASQSISYLNWYQQKPGKSPKRWIYDTSKLASGVPSRFSGSGSGTDYTLTISSMQPEDAATYYCQQWSSNPLTFGGGTKVEIKRTVAAPSVFIFPPSDEQLKSGTASVVCLLNNFYPREAKVQWKVDNALQSGNSQESVTEQDSKDSTYSLSSTLTLSKADYEKHKVYACEVTHQGLSSPVTKSFNRGEC
modifications: engineered C-terminal cysteine of the knob chain, joined by maleimide-thiol reaction to DSPE-PEG2000-maleimide on the LNP surface

Kd [2]: 1.34 nM
B3: MX1506 (antibody)
heavy 1: not shown
heavy 2: QVQLVQSGAEVKKPGASVKVSCKASGYTFTSYYIHWVRQAPGQGLEWIGSIYPGNVNTNYNEKFKDRATLTVDTSISTAYMELSRLRSDDTAVYFCTRSHYGLDWNFDVWGQGTTVTVSSASTKGPSVFPLAPSSKSTSGGTAALGCLVKDYFPEPVTVSWNSGALTSGVHTFPAVLQSSGLYSLSSVVTVPSSSLGTQTYICNVNHKPSNTKVDKKVEPKSCDKTHTCPPCPAPEAAGGPSVFLFPPKPKDTLMISRTPEVTCVVVDVSHEDPEVKFNWYVDGVEVHNAKTKPREEQYNSTYRVVSVLTVLHQDWLNGKEYKCKVSNKALAAPIEKTISKAKGQPREPQVCTLPPSRDELTKNQVSLSCAVKGFYPSDIAVEWESNGQPENNYKTTPPVLDSDGSFFLVSKLTVDKSRWQQGNVFSCSVMHEALHNHYTQKSLSLSPG
light: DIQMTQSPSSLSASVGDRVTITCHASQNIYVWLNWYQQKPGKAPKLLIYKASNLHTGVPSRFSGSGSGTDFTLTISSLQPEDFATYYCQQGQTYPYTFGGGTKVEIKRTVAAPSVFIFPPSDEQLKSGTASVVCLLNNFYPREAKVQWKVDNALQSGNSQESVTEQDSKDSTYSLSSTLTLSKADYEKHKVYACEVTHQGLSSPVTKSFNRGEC
modifications: engineered C-terminal cysteine of the knob chain, joined by maleimide-thiol reaction to DSPE-PEG2000-maleimide on the LNP surface

Kd [1]: 1050 nM
B4: MX1500 (antibody)
chain 1: not shown
chain 2: DIQLTQSPSSLSASVGDRVTITCRASQSISYLNWYQQKPGKSPKRWIYDTSKLASGVPSRFSGSGSGTDYTLTISSMQPEDAATYYCQQWSSNPLTFGGGTKVEIKRTVAAPSVFIFPPSDEQLKSGTASVVCLLNNFYPREAKVQWKVDNALQSGNSQESVTEQDSKDSTYSLSSTLTLSKADYEKHKVYACEVTHQGLSSPVTKSFNRGECGGGGSGGGGSGGGGSGGGGSGGGGSGGGGSGGGGSGGGGSQVQLVQSGAEVAKPGASVKVSCKASGYTFTRYTMHWVKQAPGQGLEWIGYINPSRGYTNYAQKFQGKATLTTDKSTSTAYMELSSLRSEDTAVYYCARYYDDHYSLDYWGQGTTLTVSSASTKGPSVFPLAPSSKSTSGGTAALGCLVKDYFPEPVTVSWNSGALTSGVHTFPAVLQSSGLYSLSSVVTVPSSSLGTQTYICNVNHKPSNTKVDKKVEPKSCDKTHTCPPCPAPEAAGGPSVFLFPPKPKDTLMISRTPEVTCVVVDVSHEDPEVKFNWYVDGVEVHNAKTKPREEQYNSTYRVVSVLTVLHQDWLNGKEYKCKVSNKALAAPIEKTISKAKGQPREPQVCTLPPSRDELTKNQVSLSCAVKGFYPSDIAVEWESNGQPENNYKTTPPVLDSDGSFFLVSKLTVDKSRWQQGNVFSCSVMHEALHNHYTQKSLSLSPG

Source: US20250161481A1 (published 2025)
